Test results: US20120316071A1
Each block holds one substance with its values, some of them ahead of it.

Tests used:
[1] = biological target: rHuman CD44/Fc Chimera, CF (R&D Systems Cat#3660-CD) (human) (UniProt P16070); assay: MSD Multispot ECL, antigen spotted on plate, Fab in solution; blank spot of the row 297
[2] = biological target: rHuman ErbB2/Fc Chimera, CF (R&D Systems Cat#1129-ER) (human) (UniProt P04626); assay: as above
[3] = biological target: rHuman IGF-1 sR, (IGF-1 sR), CF (R&D Systems Cat#391-GR) (human) (UniProt P08069); assay: as above
[4] = biological target: rHuman ErbB2/Fc Chimera, CF (R&D Systems Cat#1129-ER) (human) (UniProt P04626); assay: MSD Multispot ECL, antigen spotted on plate, Fab in solution; blank spot of the row 337
[5] = biological target: rHuman IGF-1 sR, (IGF-1 sR), CF (R&D Systems Cat#391-GR) (human) (UniProt P08069); assay: as above
[6] = biological target: rHuman CD44/Fc Chimera, CF (R&D Systems Cat#3660-CD) (human) (UniProt P16070); assay: MSD Multispot ECL, antigen spotted on plate, Fab in solution; blank spot of the row 300
[7] = biological target: rHuman ErbB2/Fc Chimera, CF (R&D Systems Cat#1129-ER) (human) (UniProt P04626); assay: as above
[8] = biological target: rHuman IGF-1 sR, (IGF-1 sR), CF (R&D Systems Cat#391-GR) (human) (UniProt P08069); assay: as above
[9] = biological target: rHuman CD44/Fc Chimera, CF (R&D Systems Cat#3660-CD) (human) (UniProt P16070); assay: MSD Multispot ECL, antigen spotted on plate, Fab in solution; blank spot of the row 240
[10] = biological target: rHuman ErbB2/Fc Chimera, CF (R&D Systems Cat#1129-ER) (human) (UniProt P04626); assay: as above
[11] = biological target: rHuman IGF-1 sR, (IGF-1 sR), CF (R&D Systems Cat#391-GR) (human) (UniProt P08069); assay: as above
[12] = biological target: rHuman CD44/Fc Chimera, CF (R&D Systems Cat#3660-CD) (human) (UniProt P16070); assay: MSD Multispot ECL, antigen spotted on plate, Fab in solution; blank spot of the row 424
[13] = biological target: rHuman ErbB2/Fc Chimera, CF (R&D Systems Cat#1129-ER) (human) (UniProt P04626); assay: as above
[14] = biological target: rHuman IGF-1 sR, (IGF-1 sR), CF (R&D Systems Cat#391-GR) (human) (UniProt P08069); assay: as above
[15] = biological target: rHuman CD44/Fc Chimera, CF (R&D Systems Cat#3660-CD) (human) (UniProt P16070); assay: ECL (MSD) multispot binding assay, antigen spotted on the plate, Fab in solution; blank spot of this well 213
[16] = biological target: rHuman EGF R/Fc Chimera, CF (R&D Systems Cat#344-ER) (human) (UniProt P00533); assay: as above
[17] = biological target: rHuman ErbB2/Fc Chimera, CF (R&D Systems Cat#1129-ER) (human) (UniProt P04626); assay: as above
[18] = biological target: rHuman HGF R/c-MET/Fc Chimera, CF (R&D Systems Cat#358-MT/CF) (human) (UniProt P08581); assay: as above
[19] = biological target: rHuman IGF-1 sR, CF (R&D Systems Cat#391-GR) (human) (UniProt P08069); assay: as above
[20] = biological target: rHuman Notch-1/Fc Chimera, CF (R&D Systems Cat#3647-TK) (human) (UniProt P46531); assay: as above
[21] = biological target: rHuman ErbB2/Fc Chimera, CF (R&D Systems Cat#1129-ER) (human) (UniProt P04626); assay: MSD Multispot ECL, antigen spotted on plate, Fab in solution; blank spot of the row 351
[22] = biological target: rHuman IGF-1 sR, (IGF-1 sR), CF (R&D Systems Cat#391-GR) (human) (UniProt P08069); assay: as above
[23] = biological target: rHuman Erythropoietin R/Fc Chimera, CF (human) (UniProt P19235); assay: ECL multispot (MSD) assay, antigen spotted on the plate, Fab in solution; blank spot of the same well 284; further: test concentration or dose not given here
[24] = biological target: rHuman ErbB2/Fc Chimera, CF (R&D Systems Cat#1129-ER) (human) (UniProt P04626); assay: MSD Multispot ECL, antigen spotted on plate, Fab in solution; blank spot of the row 316
[25] = biological target: rHuman IGF-1 sR, (IGF-1 sR), CF (R&D Systems Cat#391-GR) (human) (UniProt P08069); assay: as above
[26] = biological target: rHuman Erythropoietin R/Fc Chimera, CF (R&D Systems Cat#963-ER) (human) (UniProt P19235); assay: ECL multispot (MSD) binding assay, antigen spotted on plate; further: test concentration or dose not given here
[27] = biological target: rHuman Erythropoietin R/Fc Chimera (human) (UniProt P19235); assay: ECL multispot (MSD) binding assay; antigen spotted on plate, Fab in solution; further: test concentration or dose not given here
[28] = biological target: rHuman EGF R/Fc Chimera, CF (R&D Systems Cat#344-ER) (human) (UniProt P00533); assay: ECL Multispot (MSD), antigen spotted, Fab 0.50 (column head 'Fab [µM]'); blank 206
[29] = biological target: rHuman Erythropoietin R/Fc Chimera, CF (R&D Systems Cat#963-ER) (human) (UniProt P19235); assay: as above
[30] = biological target: rHuman EGF R/Fc Chimera, CF (R&D Systems Cat#344-ER) (human) (UniProt P00533); assay: ECL Multispot (MSD), antigen spotted, Fab 5.00 (column head 'Fab [µM]'); blank 268
[31] = biological target: rHuman Erythropoietin R/Fc Chimera, CF (R&D Systems Cat#963-ER) (human) (UniProt P19235); assay: as above
[32] = biological target: rHuman EGF R/Fc Chimera, CF (R&D Systems Cat#344-ER) (human) (UniProt P00533); assay: ECL Multispot (MSD), antigen spotted, Fab 50.00 (column head 'Fab [µM]'); blank 223
[33] = biological target: rHuman Erythropoietin R/Fc Chimera, CF (R&D Systems Cat#963-ER) (human) (UniProt P19235); assay: as above
[34] = biological target: rHuman EGF R/Fc Chimera, CF (R&D Systems Cat#344-ER) (human) (UniProt P00533); assay: ECL Multispot (MSD), antigen spotted, Fab 500.00 (column head 'Fab [µM]'); blank 495
[35] = biological target: rHuman Erythropoietin R/Fc Chimera, CF (R&D Systems Cat#963-ER) (human) (UniProt P19235); assay: as above
[36] = biological target: rHuman Erythropoietin R/Fc Chimera, CF (R&D Systems Cat#963-ER) (human) (UniProt P19235); assay: ECL Multispot (MSD), antigen spotted; Fab 5 (µM); blank 102; first of duplicates
[37] = biological target: rHuman Erythropoietin R/Fc Chimera, CF (R&D Systems Cat#963-ER) (human) (UniProt P19235); assay: ECL Multispot (MSD), antigen spotted; Fab 50 (µM); blank 332; first of duplicates
[38] = biological target: rHuman Erythropoietin R/Fc Chimera, CF (R&D Systems Cat#963-ER) (human) (UniProt P19235); assay: ECL Multispot (MSD), antigen spotted; Fab 0.50 (µM); blank 95; first of duplicates
[39] = biological target: rHuman Erythropoietin R/Fc Chimera, CF (R&D Systems Cat#963-ER) (human) (UniProt P19235); assay: ECL Multispot (MSD), antigen spotted; Fab 500 (µM); blank 570; first of duplicates
[40] = biological target: rHuman Erythropoietin R/Fc Chimera, CF (R&D Systems Cat#963-ER) (human) (UniProt P19235); assay: MSD ECL multispot assay, antigen spotted on plate, Fab in solution; blank spot of this row 274; further: test concentration or dose not given here
[41] = biological target: rHuman Erythropoietin R/Fc Chimera, CF (R&D Systems Cat#963-ER) (human) (UniProt P19235); assay: MSD ECL multispot assay, antigen spotted on plate, Fab in solution; blank spot of this row 277; further: test concentration or dose not given here
[42] = biological target: rHuman Erythropoietin R/Fc Chimera, CF (R&D Systems Cat#963-ER) (human) (UniProt P19235); assay: MSD ECL multispot assay, antigen spotted on plate, Fab in solution; blank spot of this row 282; further: test concentration or dose not given here
[43] = biological target: rHuman ErbB2/Fc Chimera, CF (R&D Systems Cat#1129-ER) (human) (UniProt P04626); assay: MSD Multispot ECL, antigen spotted on plate, Fab in solution; blank spot of the row 373
[44] = biological target: rHuman IGF-1 sR, (IGF-1 sR), CF (R&D Systems Cat#391-GR) (human) (UniProt P08069); assay: as above

ECL signal [1]: 624 | ECL signal [2]: 911 | ECL signal [3]: 899
Substance: Fab VH5-51_IGHD5-18*01>3_IGHJ4*01 G100K/G104T G35A & V3-4_IGLJ1*01

ECL signal [4]: 1040 | ECL signal [5]: 945
Substance: Fab VH5-51_IGHD5-18*01>3_IGHJ4*01 G100K/G104T F29A & V3-4_IGLJ1*01

ECL signal [6]: 608 | ECL signal [7]: 1150 | ECL signal [8]: 923
Substance: Fab VH5-51_IGHD5-18*01>3_IGHJ4*01 G100K/G104T I34A & V3-4_IGLJ1*01

ECL signal [9]: 633 | ECL signal [10]: 1070 | ECL signal [11]: 964 | ECL signal [12]: 579 | ECL signal [13]: 1100 | ECL signal [14]: 877 | ECL signal [15]: 540 | ECL signal [16]: 768 | ECL signal [17]: 1100 | ECL signal [18]: 867 | ECL signal [19]: 781 | ECL signal [20]: 437
Substance: Fab VH5-51_IGHD5-18*01>3_IGHJ4*01 G100K/G104T (KT) & V3-4_IGLJ1*01

ECL signal [21]: 1070 | ECL signal [22]: 968
Substance: Fab VH5-51_IGHD5-18*01>3_IGHJ4*01 G100K/G104T T30A & V3-4_IGLJ1*01

ECL signal [23]: 604
Substance: Fab VH1-46_IGHD6-6*01_IGHJ1*01 S102A/S103P/S104F/H111F (APFF) & L6_IGKJ1*01 S31Y

ECL signal [24]: 1070 | ECL signal [25]: 924
Substance: Fab VH5-51_IGHD5-18*01>3_IGHJ4*01 G100K/G104T S28A & V3-4_IGLJ1*01

ECL signal [26]: 461
Substance: Fab VH1-46_IGHD6-6*01_IGHJ1*01 S102A/S103P/S104F/H111F (APFF) & L6_IGKJ1*01 S31A

ECL signal [27]: 433 | ECL signal [28]: 266 | ECL signal [29]: 298 | ECL signal [30]: 303 | ECL signal [31]: 423 | ECL signal [32]: 552 | ECL signal [33]: 879 | ECL signal [34]: 2900 | ECL signal [35]: 4970 | ECL signal [36]: 294 | ECL signal [37]: 736 | ECL signal [38]: 122 | ECL signal [39]: 4720 | ECL signal [40]: 473 | ECL signal [41]: 467 | ECL signal [42]: 1060
Substance: Fab VH1-46_IGHD6-6*01_IGHJ1*01 S102A/S103P/S104F/H111F (APFF) & L6_IGKJ1*01

ECL signal [43]: 869 | ECL signal [44]: 879
Substance: Fab VH5-51_IGHD5-18*01>3_IGHJ4*01 G100K/G104T G24A & V3-4_IGLJ1*01
